Source: patent US20090220476A1 (CELLECTIS, published 2009)
Numbering of substitutions follows the chain as printed.

Tests used:
[1] = biological target: T1, I-CreI Q44, A68, N70, N75, P05725
T1 chain: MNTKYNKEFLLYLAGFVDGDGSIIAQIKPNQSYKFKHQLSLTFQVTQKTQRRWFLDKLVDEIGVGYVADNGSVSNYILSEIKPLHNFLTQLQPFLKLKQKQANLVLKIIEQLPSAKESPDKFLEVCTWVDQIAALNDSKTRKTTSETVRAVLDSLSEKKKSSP

[2] = biological target: the molecule itself; assay: far-UV CD, 1H-NMR and analytical ultracentrifugation of purified protein; self-association (homodimer)
Experimental: Novel I-CreI variants were expressed, purified, and analyzed for in vitro cleavage as reported previously (Arnould et al., precited). Circular dichroism (CD) measurements were performed on a Jasco J-810 spectropolarimeter using a 0.2 cm path length quartz cuvette. Equilibrium unfolding was induced increasing temperature at a rate of 1° C./min (using a programmable Peltier thermoelectric). Samples were prepared by dialysis against 25 mM potassium phosphate buffer, pH 7.5, at protein concentrations of 20 μM.
Finally, analysis of the structure and stability of this group of combinatorial mutants was performed using far-UV CD (FIG. 19d), ¹H-NMR and analytical ultracentrifugation. […] Thus, the two sets of residues that were mutated, K28, N30, Y33, Q38 and S40 on one hand, Q44, R68 and R70 on the other, define two relatively independent DNA binding sub-domains.

[3] = biological target: T2, I-CreI combinatorial mutant NNSRK/ARR, P05725
T2 chain: T1 chain with K28N, Y33S, Q38R, S40K, Q44A, A68R, N70R

[4] = biological target: T3, I-CreI combinatorial mutant NNSRK/ASR, P05725
T3 chain: T1 chain with K28N, Y33S, Q38R, S40K, Q44A, A68S, N70R

B1: I-CreI K44, T68, G70, N75 (protein)
chain: T1 chain with Q44K, A68T, N70G
cleavage of chimeric DNA targets gtt/gcc and gtt/cct (yeast LacZ recombination assay, co-expression) [1]: co-expression of the K44, T68, G70, N75 (KTG) and Q44, A68, N70, N75 (QAN) mutants resulted in the cleavage of two chimeric targets, gtt/gcc and gtt/cct, that were not cleaved by either mutant alone

B2: I-CreI combinatorial mutant KNHQS/KEG (enzyme, UniProt P05725 1-163, looked up)
chain: T1 chain with Y33H, Q44K, A68E, N70G
notes: The scaffold ORF has three additional C-terminal codons (AAD)
binding result [2]: binds | cleavage of the chimeric site COMB1 (yeast LacZ recombination assay, co-expression) [3]: co-expression resulted in cleavage of the chimeric sequence COMB1 among all tested heterodimers (KNHQS/KEG×NNSRK/ARR named as the example with the higher level of activity)

B3: I-CreI combinatorial mutant QNRQR/KEG (protein)
chain: T1 chain with K28Q, Y33R, S40R, Q44K, A68E, N70G
cleavage of the chimeric site COMB1 (yeast LacZ recombination assay, co-expression) [4]: co-expression resulted in cleavage of the chimeric sequence COMB1 among all tested heterodimers (QNRQR/KEG×NNSRK/ASR named as the example with the weaker activity)

B4: I-CreI combinatorial mutant KNHQS/KAS (enzyme, UniProt P05725 1-163, looked up)
chain: T1 chain with Y33H, Q44K, N70S
notes: as for B2
binding result [2]: binds | in vitro cleavage of the COMB1 target by purified proteins incubated together [3]: Cleavage of the COMB1 target was also detected in vitro when the KNHQS/KAS and NNSRK/ARR purified proteins were incubated together with the COMB1 target in our conditions, while incubation of single protein did not give rise to any detectable cleavage activity. However, the cleavage efficiency was e

B5: I-CreI combinatorial mutant NNSRK/ARR (enzyme, UniProt P05725 1-163, looked up)
chain: T1 chain with K28N, Y33S, Q38R, S40K, Q44A, A68R, N70R
notes: as for B2
binding result [2]: binds

B6: I-CreI combinatorial mutant NNSRK/ASR (enzyme, UniProt P05725 1-163, looked up)
chain: T1 chain with K28N, Y33S, Q38R, S40K, Q44A, A68S, N70R
notes: as for B2
binding result [2]: binds
